Assay results as given in patent US20100280227A1 (Genentech, published 2010).
Residue numbers refer to the chain shown, from its start. Names and notes keep the numbering of the source. Values joined by “and” are separate entries in the source; they are usually repeats but may differ in a detail not shown here. Identical values can stand only once.

B1: 9.1RF S298A/E333A/K334A IgG (antibody)
light: DIQMTQSPSSLSASVGDRVTITCKSSQSLLYSSNQNNYLAWYQQKPGKAPKLLIYWASTRESGVPSRFSGSGSGTDFTLTISSLQPEDFATYYCQQYYTYPYTFGQGTKVEIKRTVAAPSVFIFPPSDEQLKSGTASVVCLLNNFYPREAKVQWKVDNALQSGNSQESVTEQDSKDSTYSLSSTLTLSKADYEKHKVYACEVTHQGLSSPVTKSFNRGEC
heavy: EVQLVESGGGLVQPGGSLRLSCAASGFTVTAYYMSWVRQAPGKGLEWVGFIRDKANGYTTEYNPSVKGRFTISRDTSKNTFYLQMNSLRAEDTAVYYCAQVRRALDYWGQGTLVTVSSASTKGPSVFPLAPSSKSTSGGTAALGCLVKDYFPEPVTVSWNSGALTSGVHTFPAVLQSSGLYSLSSVVTVPSSSLGTQTYICNVNHKPSNTKVDKKVEPKSCDKTHTCPPCPAPELLGGPSVFLFPPKPKDTLMISRTPEVTCVVVDVSHEDPEVKFNWYVDGVEVHNAKTKPREEQYNATYRVVSVLTVLHQDWLNGKEYKCKVSNKALPAPIAATISKAKGQPREPQVYTLPPSREEMTKNQVSLTCLVKGFYPSDIAVEWESNGQPENNYKTTPPVLDSDGSFFLYSKLTVDKSRWQQGNVFSCSVMHEALHNHYTQKSLSLSPG
notes: Fc variant of 9.1RF, transient CHO expression; copies: 2 + 2
B2: 9.1RF IgG antibody (antibody)
light: B1 light
heavy: not shown
notes: produced in CHO cells; also called h9.1-RF; Hu9.1-RF-IgG; copies: 2 + 2
B3: 9.1RF N434A IgG (antibody)
light: B1 light
heavy: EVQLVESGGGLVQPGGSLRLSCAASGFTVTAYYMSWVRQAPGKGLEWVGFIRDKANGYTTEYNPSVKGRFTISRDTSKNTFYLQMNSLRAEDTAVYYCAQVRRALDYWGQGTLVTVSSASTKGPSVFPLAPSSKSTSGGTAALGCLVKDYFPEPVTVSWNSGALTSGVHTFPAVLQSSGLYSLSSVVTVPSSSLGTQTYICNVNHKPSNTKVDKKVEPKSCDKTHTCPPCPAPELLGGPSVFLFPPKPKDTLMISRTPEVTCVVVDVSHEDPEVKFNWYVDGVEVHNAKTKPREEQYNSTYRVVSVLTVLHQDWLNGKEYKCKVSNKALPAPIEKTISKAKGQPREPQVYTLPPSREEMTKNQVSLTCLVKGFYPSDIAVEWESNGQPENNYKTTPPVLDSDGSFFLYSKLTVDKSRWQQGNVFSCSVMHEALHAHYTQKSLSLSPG
notes: produced in CHO cells; copies: 2 + 2
B4: 9.1RF N434W IgG (antibody)
light: B1 light
heavy: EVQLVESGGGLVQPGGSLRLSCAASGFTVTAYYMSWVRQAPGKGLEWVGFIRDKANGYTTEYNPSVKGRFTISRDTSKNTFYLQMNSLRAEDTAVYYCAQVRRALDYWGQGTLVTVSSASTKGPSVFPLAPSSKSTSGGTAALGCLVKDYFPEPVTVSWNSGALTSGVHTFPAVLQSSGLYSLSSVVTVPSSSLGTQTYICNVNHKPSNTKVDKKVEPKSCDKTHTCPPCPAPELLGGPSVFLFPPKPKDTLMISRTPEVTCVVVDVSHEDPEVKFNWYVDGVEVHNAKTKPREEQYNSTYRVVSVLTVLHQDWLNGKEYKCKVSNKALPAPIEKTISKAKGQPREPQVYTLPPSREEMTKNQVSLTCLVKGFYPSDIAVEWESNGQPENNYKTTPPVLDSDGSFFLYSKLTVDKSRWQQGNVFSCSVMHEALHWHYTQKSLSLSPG
notes: as for B3
B5: 9.1RF S298A/K326A/E333A/K334A IgG (antibody)
light: B1 light
heavy: B1 heavy with K327A
notes: as for B1
B6: Hu9.1-70 Fab (Fab, V domains shown)
VH: EVQLVESGGGLVQPGGSLRLSCAASDSPRSGYYISWVRQAPGKGLEWVGFIRDKANGYTTEYNPSVKGRFTISADTSKNTAYLQMNSLRAEDTAVYYCAQVRRALDYWGQGTLVTVSS
VL: DIQMTQSPSSLSASVGDRVTITCKSSQSLLYSSNQNNYLAWYQQKPGKAPKLLIYWASIRDSGVPSRFSGSGSGTDFTLTISSLQPEDFATYYCQQYYTYPYTFGQGTKVEIKR
notes: Fab

Legend:
[1] = target: T1, human BR3 expressed on cells (human, UniProt Q96RJ3 1-184); assay: cell-based or functional assay
[2] = target: T2, human FcγRI extracellular domain, His-tagged GST fusion (human, UniProt P12314 16-292); assay: ELISA, captured FcgR-GST; EC50herceptin/EC50sample
T2 construct: extracellular domain; also called hFcgRI; Human I

[3] = target: T3, human FcγRIIa extracellular domain, His-tagged GST fusion (human, UniProt P12318 34-217); assay: ELISA, captured FcgR-GST; EC50herceptin/EC50sample
T3 construct: extracellular domain; also called hFcgRIIa; Human IIa
T3 sequence (looked up): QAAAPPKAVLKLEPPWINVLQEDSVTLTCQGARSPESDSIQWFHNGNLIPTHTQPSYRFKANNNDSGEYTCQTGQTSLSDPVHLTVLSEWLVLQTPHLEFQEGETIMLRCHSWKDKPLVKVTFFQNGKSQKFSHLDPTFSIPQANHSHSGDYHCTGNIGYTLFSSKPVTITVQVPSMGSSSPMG

[4] = target: T4, human FcγRIIb extracellular domain, His-tagged GST fusion (human, UniProt P31994 43-217); assay: ELISA, captured FcgR-GST; EC50herceptin/EC50sample
T4 construct: extracellular domain; also called hFcgRIIb; Human IIb
T4 sequence (looked up): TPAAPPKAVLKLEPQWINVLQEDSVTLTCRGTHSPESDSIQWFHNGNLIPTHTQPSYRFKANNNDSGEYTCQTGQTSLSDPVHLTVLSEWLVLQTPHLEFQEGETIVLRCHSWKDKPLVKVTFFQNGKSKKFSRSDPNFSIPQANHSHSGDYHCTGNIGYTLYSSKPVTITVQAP

[5] = target: T5, mouse FcγRI extracellular domain, His-tagged GST fusion (mouse, UniProt P26151 25-297); assay: ELISA, captured FcgR-GST; EC50herceptin/EC50sample
T5 construct: extracellular domain; also called Mouse I
T5 sequence (looked up): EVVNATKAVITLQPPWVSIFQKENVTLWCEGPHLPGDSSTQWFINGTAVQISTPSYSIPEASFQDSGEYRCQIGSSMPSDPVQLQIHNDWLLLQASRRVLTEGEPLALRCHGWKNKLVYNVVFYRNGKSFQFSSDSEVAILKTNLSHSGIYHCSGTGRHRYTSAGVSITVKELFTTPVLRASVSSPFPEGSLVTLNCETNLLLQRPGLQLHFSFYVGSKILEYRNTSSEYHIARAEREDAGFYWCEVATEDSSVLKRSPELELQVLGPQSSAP

[6] = target: T6, mouse FcγRII extracellular domain, His-tagged GST fusion (mouse, UniProt P08101 30-210); assay: ELISA, captured FcgR-GST; EC50herceptin/EC50sample
T6 construct: extracellular domain; also called Mouse II
T6 sequence (looked up): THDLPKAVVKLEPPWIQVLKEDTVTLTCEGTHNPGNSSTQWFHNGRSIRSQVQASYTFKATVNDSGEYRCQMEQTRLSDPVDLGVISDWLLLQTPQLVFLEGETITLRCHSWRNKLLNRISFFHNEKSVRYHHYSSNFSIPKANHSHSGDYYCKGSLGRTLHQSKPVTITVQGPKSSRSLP

[7] = target: T7, mouse FcγRIII extracellular domain, His-tagged GST fusion (mouse, UniProt P08508 31-215); assay: ELISA, captured FcgR-GST; EC50herceptin/EC50sample
T7 construct: extracellular domain; also called Mouse III
T7 sequence (looked up): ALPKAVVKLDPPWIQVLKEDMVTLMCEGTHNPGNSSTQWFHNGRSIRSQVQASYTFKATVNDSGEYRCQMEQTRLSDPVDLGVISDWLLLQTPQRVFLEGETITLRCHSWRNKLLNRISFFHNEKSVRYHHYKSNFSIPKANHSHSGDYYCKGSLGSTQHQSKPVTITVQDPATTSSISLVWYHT

[8] = target: T1, human BR3 expressed on cells; assay: BJAB cells, direct binding
[9] = target: T8, human FcRn (human, UniProt P55899 24-297; P61769 21-119, limits assumed); assay: SPR, FcRn on chip, kinetic, pH 6
T8 construct: construct not described; also called huFcRn

[10] = target: T9, cynomolgus FcRn (cynomolgus monkey, UniProt Q8SPV9 24-297; Q8SPW0 21-119, limits assumed); assay: SPR, FcRn on chip, kinetic, pH 6
T9 construct: construct not described; also called cynoFcRn; cyno FcRn

[11] = target: T10, human BR3 extracellular domain (human, UniProt Q96RJ3 1-61); assay: SPR, IgG on chip, BR3 ECD in solution
T10 construct: biotinylated where used as tracer; also called hBR3-ECD; BR3-ECD

[12] = target: T1, human BR3 expressed on cells; assay: BJAB cells, competition with biotin-BAFF
[13] = target: T8, human FcRn; assay: SPR, FcRn on chip, kinetic, pH 6.0 (KDa)
[14] = target: T9, cynomolgus FcRn; assay: SPR, FcRn on chip, kinetic, pH 6.0 (KDa)
[15] = target: T8, human FcRn; assay: SPR, FcRn on chip, equilibrium, pH 6.0 (KDb)
[16] = target: T9, cynomolgus FcRn; assay: SPR, FcRn on chip, equilibrium, pH 6.0 (KDb)
[17] = target: T2, human FcγRI extracellular domain, …; assay: ELISA, captured FcgR-GST; A450 ratio to 9.1RF
[18] = target: T3, human FcγRIIa extracellular domain, …; assay: ELISA, captured FcgR-GST; A450 ratio to 9.1RF
[19] = target: T4, human FcγRIIb extracellular domain, …; assay: ELISA, captured FcgR-GST; A450 ratio to 9.1RF
[20] = target: T2, human FcγRI extracellular domain, …; assay: ELISA, receptor-His-GST captured by anti-GST, uncomplexed IgG
[21] = target: T3, human FcγRIIa extracellular domain, …; assay: ELISA, receptor-His-GST captured by anti-GST, IgG complexed with anti-kappa F(ab')2
[22] = target: T10, human BR3 extracellular domain; assay: SPR with Fab
[23] = target: T10, human BR3 extracellular domain; assay: SPR, BR3 ECD on chip;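 note: Anti-BR3 antibodies passed over the chip at high flow in PBS with 0.05% polysorbate 20, on and off rates fitted together globally to a 1:1 binding model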
[24] = target: T11, variant human BR3-Fc fusion; assay: SPR, vBR3-Fc on chip;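 note: Anti-BR3 antibodies passed over chip-bound BR3-Fc in PBS with 0.05% polysorbate 20, on and off rates fitted together globally to a 1:1 binding model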
T11 construct: produced in CHO cells; also called vBR3-Fc; vhBR3-Fc

[25] = target: T10, human BR3 extracellular domain; assay: BIAcore, Fab over immobilised target
[26] = target: T11, variant human BR3-Fc fusion; assay: BIAcore, Fab over immobilised target

Binder	ADCC activity relative to 9.1wt (relative EC50 values) [1] [fold]	fold improvement in binding vs Herceptin [2] [fold]	fold improvement in binding vs Herceptin [3] [fold]	fold improvement in binding vs Herceptin [4] [fold]	fold improvement in binding vs Herceptin [5] [fold]	fold improvement in binding vs Herceptin [6] [fold]	fold improvement in binding vs Herceptin [7] [fold]	koff [9] [s⁻¹]	kon [9] [M⁻¹ s⁻¹]	koff [10] [s⁻¹]	kon [10] [M⁻¹ s⁻¹]	Kd [13] [nM]	Kd [14] [nM]	Kd [15] [nM]	Kd [16] [nM]	binding relative to 9.1RF [17] [ratio]	binding relative to 9.1RF [18] [ratio]	binding relative to 9.1RF [19] [ratio]	EC50 (read off the curve) [20] [µg/mL]	EC50 (read off the curve) [21] [µg/mL]	other results
B1	2.8	0.7	0.2	0.4	2.5	0.4	0.6														ADCC on BJAB cells (LDH release), EC50 [1]: < 1 nM
B2		1	2.3	0.7	1.2	0.7	0.8	0.0784	635000	0.192	1.01e+06	123	191	118	186	1	1	1	~0.006	~1	EC50 [8]: 0.46 nM; Kd [11]: 0.169 nM; koff [11]: 0.000309 s⁻¹; kon [11]: 1.8e+06 M⁻¹ s⁻¹; IC50 [12]: 0.68 nM
B3								0.0467	884000	0.0962	1.7e+06	52.8	56.5	66.6	62.7	0.97	0.66	0.45	~0.006	~2	
B4								0.0102	4.31e+06	0.0144	4.74e+06	2.37	3.03	5.8	5.1	1	0.64	0.4	~0.006	~2	
B5	3	0.6	0.2	0.7	1.9	1.3	1.2														ADCC on BJAB cells (LDH release), EC50 [1]: < 1 nM
B6																					fold higher affinity than the chimeric 9.1 Fab [22]: ~2 fold; Kd [23]: 0.13 nM and 0.17 nM; koff [23]: 0.000137 s⁻¹ and 0.000163 s⁻¹; kon [23]: 1.08e+06 M⁻¹ s⁻¹ and 950000 M⁻¹ s⁻¹; Kd ([24]; 220 RU BR3-Fc immobilized): 0.95 nM; koff ([24]; 220 RU BR3-Fc immobilized): 0.00068 s⁻¹; kon ([24]; 220 RU BR3-Fc immobilized): 720000 M⁻¹ s⁻¹; Kd ([24]; 380 RU BR3-Fc immobilized): 0.61 nM; koff ([24]; 380 RU BR3-Fc immobilized): 0.000392 s⁻¹; kon ([24]; 380 RU BR3-Fc immobilized): 640000 M⁻¹ s⁻¹; Kd [25]: 0.15 nM; Kd [26]: 0.78 nM
